Laboratory results as given in patent US7537932.

Molecular target: mouse Flt3 receptor on Baflt cells (Ba/F3 cells stably transfected with Flt3 cDNA) (mouse) (UniProt Q00342)
Experiment: cell-based or functional assay

UniProt Q00342, sequence (Q00342 28-1000): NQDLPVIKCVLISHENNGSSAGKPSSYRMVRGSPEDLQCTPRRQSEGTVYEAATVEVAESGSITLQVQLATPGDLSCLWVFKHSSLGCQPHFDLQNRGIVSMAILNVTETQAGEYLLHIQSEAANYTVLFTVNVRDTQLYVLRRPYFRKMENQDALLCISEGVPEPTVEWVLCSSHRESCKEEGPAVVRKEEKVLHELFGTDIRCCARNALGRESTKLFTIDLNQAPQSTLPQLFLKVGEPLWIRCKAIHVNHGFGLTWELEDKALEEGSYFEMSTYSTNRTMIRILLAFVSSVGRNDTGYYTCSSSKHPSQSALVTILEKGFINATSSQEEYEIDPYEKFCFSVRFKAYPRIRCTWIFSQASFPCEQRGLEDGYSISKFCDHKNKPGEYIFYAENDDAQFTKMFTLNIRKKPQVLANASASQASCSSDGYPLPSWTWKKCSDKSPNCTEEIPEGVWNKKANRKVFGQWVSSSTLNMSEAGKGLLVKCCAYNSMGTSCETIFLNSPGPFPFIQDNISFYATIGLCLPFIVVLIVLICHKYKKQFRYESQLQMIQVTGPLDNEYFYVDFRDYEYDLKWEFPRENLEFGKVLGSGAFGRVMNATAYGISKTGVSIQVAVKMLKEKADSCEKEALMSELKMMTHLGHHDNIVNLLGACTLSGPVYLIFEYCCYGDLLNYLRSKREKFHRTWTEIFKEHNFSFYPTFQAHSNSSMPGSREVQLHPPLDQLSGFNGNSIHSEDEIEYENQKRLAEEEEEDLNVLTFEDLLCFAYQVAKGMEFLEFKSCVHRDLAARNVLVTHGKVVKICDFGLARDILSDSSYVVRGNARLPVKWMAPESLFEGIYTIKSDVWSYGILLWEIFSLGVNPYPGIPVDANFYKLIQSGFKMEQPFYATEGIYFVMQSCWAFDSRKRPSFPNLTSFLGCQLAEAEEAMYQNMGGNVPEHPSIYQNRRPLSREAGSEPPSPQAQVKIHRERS

specific activity in the bioassay (MTT assay, Baflt minus Ba/F3): 3e+06 units/mg
Substance: purified native mouse Flt3 ligand (naturally occurring soluble form from TA4 thymic stromal cell conditioned medium) (from UniProt P49772 27-189)
specific activity on the Baf assay (MTT survival assay, Baflt minus Baf signal) (Units per milligram): 1e+07
